Columns and labels:
[1] = test system: RELA TALEN11-1R (right monomer) (synthetic (Xanthomonas TALE)?); test: cell_activity; conditions: TALEN pair mRNA 2 ng/ul zygote injection, 8 of 39 piglets; 21% of embryos tested in vitro; assayed as pair with left monomer; left/right assignment to …
[2] = test system: RELA TALEN11-1L (left monomer) (synthetic (Xanthomonas TALE)?); test: cell_activity; conditions: TALEN pair mRNA 2 ng/ul zygote injection, 8 of 39 piglets; 21% of embryos tested in vitro; assayed as pair with right monomer; left/right assignment to …

| Sequence | activity (% edited of piglets born) [1] | activity (% edited of piglets born) [2] |
| --- | --- | --- |
| AGTACCCTGAGGCTAT (double strand) [RELA TALEN right half-site] | 21 | – |
| GCCCCCCCACACAGCTG (double strand) [RELA TALEN left half-site] | – | 21 |

From patent US20150313192
